We go through one substance from patent publication US20240026344A1.

The assay concerns the target AAV8 capsids (adeno-associated virus 8 (AAV8)). The assay can be described thus: BLI (ForteBio), control ligand on sensor, AAV8 capsids 5x10^11 particles/mL, response after 4000 s. (In BLI a coated tip is dipped into the sample, and binding shifts an interference pattern.)

With “Non-binding ligand (control) (designed binder)”, the Response was found to be 0.03.
